Laboratory results taken from the DeepSol protein solubility set.

Assay: soluble on expression in E. coli; label from the status in PepcDB or PDB records

Soluble on expression in E. coli, soluble:
MGSQKRLVQRVERKLEQTVGDAFARIFGGSIVPQEVEALLRREAADGIQSLQGNRLLAPNEYIITLGVHDFEKLGADPELKSTGFARDLADYIQEQGWQTYGDVVVRFEQSSNLHTGQFRARGTVNPDVETHPPVIDCARPQSNHAFGAEPGVAPMSDNSSYRGGQGQGRPDEYYDDRYARPQEDPRGGPDPQGGSDPRGGYPPETGGYPPQPGYPRPRHPDQGDYPEQIGYPDQGGYPEQRGYPEQRGYPDQRGYQDQGRGYPDQGQGGYPPPYEQRPPVSPGPAAGYGAPGYDQGYRQSGGYGPSPGGGQPGYGGYGEYGRGPARHEEGSYVPSGPPGPPEQRPAYPDQGGYDQGYQQGATTYGRQDYGGGADYTRYTESPRVPGYAPQGGGYAEPAGRDYDYGQSGAPDYGQPAPGGYSGYGQGGYGSAGTSVTLQLDDGSGRTYQLREGSNIIGRGQDAQFRLPDTGVSRRHLEIRWDGQVALLADLNSTNGTTVNNAPVQEWQLADGDVIRLGHSEIIVRMH, MKKMAFAAIALGLVACAPAQQQRLVYPPTVEVERIQLTSFSLPAPGRAAVAGVRLELNVDNPNPLPVRLVQLAGVLVLDGQEAGTVTVPDIRLPGQGRARQVAQLTLPVTFKTATTFLNIARGQEVSYRLDGTLTADLGPLGQPTFGPFTLTQGVWKQAPLSVF, GGVVLRVVTVLEEPFVMVSENVLGKPKKYQGFSIDVLDALSNYLGFNYEIYVAPDHKYGSPQEDGTWNGLVGELVFKRADIGISALTITPDRENVVDFTTRYMDYSVGVLLRRGTSIQSLQDLSKQTDIPYGTVLDSAVYQHVRMKGLNPFERDSMYSQMWRMINRSNGSENNVLESQAGIQKVKYGNYAFVWDAAVLEYVAINDPDCSFYTVGNTVADRGYGIALQHGSPYRDVFSQRILELQQSGDMDILKHKWWPKNGQCDL, SNAMKLIAIDLDGTLLNSKHQVSLENENALRQAQRDGIEVVVSTGRAHFDVMSIFEPLGIKTWVISANGAVIHDPEGRLYHHETIDKKRAYDILSWLESENYYYEVFTGSAIYTPQNGRELLDVELDRFRSANPEADLSVLKQAAEVQYSQSGFAYINSFQELFEADEPIDFYNILGFSFFKEKLEAGWKRYEHAEDLTLVSSAEHNFELSSRKASKGQALKRLAKQLNIPLEETAAVGDSLNDKSMLEAAGKGVAMGNAREDIKSIADAVTLTNDEHGVAHMMKHLL, MSKGKVCLAYSGGLDTSVILAWLLDQGYEVVAFMANVGQEEDFDAAKEKALKIGACKFVCVDCREDFVKDILFPAVQVNAVYEDVYLLGTSLARPVIAKAQIDVAKQEGCFAVSHGCTGKGNDQIRFELSFYALKPDVKCITPWRMPEFFERFAGRKDLLDYAAQKGIPVAQTKAKPWSTDENQAHISYEAGILEDPDTTPPKDMWKLIVDPMDAPDQPQDLTIDFERGLPVKLTYTDNKTSKEVSVTKPLDVFLAASNLARANGVGRIDIVEDRYINLKSRGCYEQAPLTVLRKAHVDLEGLTLDKEVRQLRDSFVTPNYSRLIYNGFLLHPECEYIRSMIQPSQNSVNGTVRVRLYKGNVIILGRSTKTEKLYDPTESSMDELTGFLPTDTTGFIAIQAIRIKKYGESKKTKGEELTL, MSYYHHHHHHLESTSLYKKAGLNNFNLHTPTRILFGKGAIAGLREQIPHDARVLITYGGGSVKKTGVLDQVLDALKGMDVLEFGGIEPNPAYETLMNAVKLVREQKVTFLLAVGGGSVLDGTKFIAAAANYPENIDPWHILQTGGKEIKSAIPMGCVLTLPATGSESNAGAVISRKTTGDKQAFHSAHVQPVFAVLDPVYTYTLPPRQVANGVVDAFVHTVEQYVTKPVDAKIHDRFAEGILLTLIEDGPKALKEPENYDVRANVMWAATQALNGLIGAGVPQDWATHMLGHELTAMHGLDHAQTLAIVLPALWNEKRDTKRAKLLQYAERVWNITEGSDDERIDAAIAATRNFFEQLGVPTHLSDYGLDGSSIPALLKKLEEHGMTQLGENHDITLDVSRRIYEAAR, AETVESCLAKSHTENSFTNVWKDDKTLDRYANYEGCLWNATGVVVCTGDETQCYGTWVPIGLAIPENEGGGSEGGGSEGGGSEGGGDDIFGELSSGKNAPKTGGGAKGNNASPAGSGNTKNNGASGADINNYAGQIKSAIESKFYDASSYAGKTCTLRIKLAPDGMLLDIKPEGGDPALCQAALAAAKLAKIPKPPSQAVYEVFKNAPLDFKPAAAHHHHHH

Soluble on expression in E. coli, not soluble:
MKIAIFSKLTIKEDEIRKKLGNYDVDIFPPIKRGDLTSEKIFDYDIIGIIDGCFLQSTAVAHREILKVIENNITVFGAGSMGALRASELDTCGMIGVGLVYNLYKNGIISDDDEVAVTFDDNLNQITFSMISFREMIKNALNEKIIDEDDSKRLINSGKELYYPLRTFENVIEKSKISGEKREVLEKFLKNQPDIKRNDAFEMLEEIIKYIEKQ, MPAELLLYRSNLLGSDLTVTNFGGGNTSAKLEEMDPLTGEPVEVLWVKGSGGDIGSMKIDGFATLYQAKLLGLEAHYAGPQDDDKMVGFLPHCTFNLNCRAASIDTPLHSLLPFAHVDHVHPDAIIALAASSGGEAATKEIWGGRIGWLPWKRPGYTLGVMLRDFVKANPGVEGVMLAGHGIICWADSAKACYEHTVRLIADAAGYLNARLAEKPAFGGRLEHHHHHH, AQSSTDVIDQLFTALSGWFHGSEEKLGEFRGCFFINTSAEFSDDSGEIATYCRHHKQQVRELIQRYLKSDNTSLLDAICIMKEGAITTAYMTKEYDDVTKKCVEILHKL, MNGNSTNNEQLQQELATTQDQVASIIESFVELGVSIYDFPGTPEATKGMITNLQRNVDRLYKLNVRSNDPQSSLSKVDIPLEVVQYIEDGRNPDIYTREFVEAIRRSNQYQRGKMHGLKQLRDSLADKIVDEFPELKEPVEDIIKRTSPIDNVSNTH, MGSDKIHHHHHHMHDVLIIGSGVIGMSIARHLSATHLDVAVIDRDVPGKHASYKAGGMLGAQNEFTEDSDLFQLAIESRAMFPQLSKSLLDETGIDIQFKNSGLIKIANEHDDISSIKRQYQFLNSQDRSVKQLSDDDLLQLTHGEVKPSYAAIHIPHDGQINAHHYTLALLESMKLRDIKRYESTEVTSIERHNGYYSVKTDQSSTIEAHKIIVAGGAWSSQLLTQYHLQRQVIGVKGEVILLENNDLSLTETLFMTNGCYIVPKQPNRFLIGATSEFNNYSVGTTDEGMDWLLRHAYHRVPQLKDSHILKKWSGVRPYTEKEMPVMDQIDDGLYVISGHYRNGILLSPIIGRDIANWLLSGIKPSRYSSFTVTRRNNHEVYH, MPEAWAPVRPETPPAPELLYWNAELADELGLDAGQTDKGELARLFSGADIPEGAQPIAQAYAGHQFGGLSPSLGDGRALLLGEVTDRNGQRRDIALKGSGQTPFSRRGDGKAAVGPMLRELIVGEAMQALGIPTTRALAVTTTGEPVYRERPLPGAVLTRVAASHLRVGTFQYFAIRGETAMLNKLADYTIARHYPQLAGRDGRHLALLAAVAERQAALIARWMHAGFIHGVMNTDNMALSGETIDYGPCAFMDAHYPGTVFSSIDHQGRYAYGNQPAIAQWNLARFAETLLPLISPDDPAAAVPAATEIVEGFEDLYQRRWLEQARRKLGLEGERDDDQALADDWLMLLAAHGVDHTLAWRYLADEAEGKGERLAALFPSPDALTPWLKQWHARHVPRTRRPPDIAAAMRRESPLYIPRNHLVEEALDAASERGDMGPTLKLLEALHQPFAERDGLDRYAQPAAAELAEGYRTFCGTLEHHHHHH, MGSDKIHHHHHHMRTVYIIGSKGIPAKYGGFETFVEKLTEYQKDKSINYFVACTRENSAKSGITGEVFEHNGATCFNIDVPNIGSAKAILYDIMALKKSIEIAKDRNDTSPIFYILACRIGPFIYLFKKQIESIGGQLFVNPDGHEWLREKWSYPVRQYWKFSESLMLKYADLLICDSKNIEKYIHEDYRKYAPETSYIAYGTDLDKSRLSPTDSVVREWYKEKEISENDYYLVVGRFVPENNYEVMIREFMKSYSRKDFVLITNVEHNSFYEKLKKETGFDKDKRIKFVGTVYNQELLKYIRENAFAYFHGHEVGGTNPSLLEALSSTKLNLLLDVGFNREVGEEGAKYWNKDNLHRVIDSCEQLSQEQINDMDSLSTKQVKERFSWDFIVDEYEKLFKG, MINTNLSSNESSAVYIHIPFCEHICYYCDFNKVFLEGQPVDEYVDLLIKEMELTVAKGPIAPVDTVFVGGGTPTTLNEAQIARLCTAIHNTLPLKKDIEFSFEANPGDLSLSKLQAMQDHGVNRISMGVQSFNNELLKKIGRIHTVKDVYQSVENMRKIGFENVSIDLIFSLPGQTEADFQDTLKQALDLDLPHYSAYSLIIEPKTIFYNLMQKGKLFLPGQDAEANMYDLLLNEMEKHGRKQYEISNFAKEGFQSKHNITYWSNEHYYGFGAGAHGYVGNTRYSNFGPIKKYMEPLQENILPTFQQKELTLKEKMEEEMFLGLRKVDGVDKKHFKQKFGQDLDATFANAIQKTTAKGWLENNEENVALTRSGRFLGNNVFQEFL, MAAQLDPSSEFAALVKQLQREPDNPGLKQAVVKRLPEMQLLAKTNSLALFRLAQVYSPSSSQHKQMILQSAAQGCTNAMLSACEILLKSGAANDLITAAHYMRLIQSSKDSYIIGLGKKLLEKYPDFAEELKSKEVPYQSTLRFFGVQSESNKENEEKIINRPTV, MGSDKIHHHHHHMSVLKGSQNVTICNANGLKLAARLELPDIPPRGMAMIAPAFGCTKEILIASRTARRLLQYGIGSLRLDFTGIGQSEGDFSMTNLDTQVEDFVSAADWLRQHVAAPNILIGHSFGGLVALNACHSIPESRACVTIATPESPAHVLEIIGEDKTREIMQGGATSIEVNRQPYVLRRQFADHARQFRLHDTMQRLRVPVLIMHSPRDEMVPMRHAHAIFETARHPKSLLAIEDADHMVSERPAAEFVASTIGLWGMRYLTDG, MGSDKIHHHHHHMLTASVNEAEPCAEPQRPVIRLHPVTADDAPKLPATRCSTCAIRNVCMPAGLTPIEFARLDAMVCTTRHVKRGDALFRTHDTFQSIYAVRTGSFKTVVMHRDGREQVTGFQIVGETLGLDGVCGGRHNSDAIALEDSTVCIIPFAQLEAVCREVKPMQHHVHQLMSGEIVRESSLMMLLGTMTAEQRVAAFLLNISERFQKRGYSASEFNLRMTREEIGCYLGMKLETVSRMLSKFQRDRLIAPRGKQIRITDPQGLARV, RTDTIMVLHIPSSGKATLMSIPRDSYVEIPGYGMDKINASFTYGGAPLLTQTVENATGLRINHYAEIGMGGLANVVDAVGGIEVCPAEPIDDPLAGLNIAAGCQKVDGPTALGYVRTRHTALGDLDRVQRQREFFAALVNKVTS, MAEQRWTGQLDLTVFNNGQSSKARNIFFEKALKVLRPIYLEQSPVPTFYIVNVGGGYLDGDRYRVNVNLEDNAQVTLTSQGATKIYKTPNDHVEQYQTFNLSNQSYMEFVADPIIAYENAKFFQHNTFNLKEDSAMFYTDILTPGYSSNGQDFTYNYMHLINEIYIDNQLVVFDNMMLSPDKSRLDGIGYMENYTHLGSAYFIHPDVNQSFIDDIYAAVADFQKQYDCRIGISQLPTHGLAVRILTKRTQIIEEILTRVQSYINQTIYHRQINFLRKYLEHHHHHH
